Patent US20050037947A1, “INHIBITION OF DRUG BINDING TO SERUM ALBUMIN” (priority 2003, published 2005)

Target: T1, human serum albumin (Homo sapiens, UniProt P02768)
T1 construct: purchased Aventis, Bridgewater, N.J. Albuminar
Experiment: Serum albumin binding by surface plasmon resonance (BIACORE 3000)
Details: SPR, immobilized serum albumin, 25° C., Req divided by molecular weight; for reduction of human serum albumin binding of the Fc chimeric protein compared to the unmodified molecule: unmodified molecule bound this many times as much
Procedure: Analysis of macromolecular interactions was performed using surface plasmon resonance as previously described (Frostell-Karlsson et al. 2000, J. Med. Chem. 43:1986). A BIACORE 3000 instrument (Biacore AB, Piscataway, N.J.) was used and all binding interactions were performed at 25° C. A carboxymethyl-modified dextran (CM5) sensor chip (Biacore AB, Piscataway, N.J.) was used for the analysis. Serum albumin (Albuminar, Aventis, Bridgewater, N.J.) was diluted to 100 μg/mL in 10 mM sodium acetate (pH 4.5) and immobilized to one flowcell of the sensor chip, using amine coupling as described (Frostell-Karlsson et al. 2000, J. Med. Chem. 43:1986). Final immobilization level was approximately 8500 Resonance Units (RU). A “mock-immobilized” surface using a separate flowcell was created using the same procedure in the absence of serum albumin and served as a reference for the binding studies.
Proteins or peptides (analyte) were diluted in HBS-N buffer (10 mM HEPES, pH 7.4; 150 mM NaCl) and injected over the serum albumin and reference surfaces for 3 minutes at a rate of 20 μL/min. After a 35 second dissociation phase, the surface was regenerated by a 30 second pulse of 10 mM glycine (pH 2.0) at a flow rate of 60 μL/min.
The sensorgrams (RU versus time) generated for the mock-coated flowcell were automatically subtracted from the serum albumin-coated sensorgrams. Response at equilibrium (Req) was measured 30 seconds before the end of the injection phase and divided by the molecular weight of the analyte, total response as is in part, a function of molecular weight. (Frostell-Karlsson et al. 2000, J. Med. Chem. 43:1986). Samples tested included T20 linked to Fc (i.e. T20-Fc produced in CHO cells and Fc-T20 produced in E. coli), a VLA4 antagonist linked to Fc, a GnRH peptide linked to Fc, PspA, a bacterial peptide fragment of S. pneumonia surface protein A, peptide YY a peptide involved in regulation of nutrient uptake and an Fc fragment of an immunoglobulin beginning with Cys 226 served as negative controls.

| Substance | reduction of human serum albumin binding of the Fc chimeric protein compared to the unmodified molecule | human serum albumin binding of the unmodified molecule compared to the same molecule linked to Fc (ratio unmodified molecule / Fc chimeric protein) |
| --- | --- | --- |
| Fc-T20: T20 linked to Fc, produced in E. coli | more than three |  |
| T20-Fc: T20 linked to Fc, produced in CHO cells | more than three |  |
| T20: HIV fusion inhibitor, a small peptide, fragment of gp41 (SEQ ID NO: 1) [reference compound] |  | more than three |
